How the values were obtained:
FcRn = molecular target: T1, FcRn; assay: SPR ('Binding SPR (KD)' row FcRn); set-up not given
T1 construct: also called neonatal Fc receptor

[1] = molecular target: T2, anti-Müllerian hormone type II receptor (AMHRII), immobilised on the SPR chip (human, UniProt Q16671 18-149, limits assumed); assay: SPR (Bia3000, 25°C), AMHRII covalently immobilised on a CM5 chip, ADC injected, Langmuir 1:1 fit (Example 3)
T2 construct: also called AMHR2
Procedure: All kinetic measurements are performed on a Bia3000 apparatus at 25° C. in PBS pH 7.4 containing 0.005% of P20 surfactant at 50 μl/min on control and AMHRII Flowcells. The antibody is injected during 180 s at concentrations given in the appendix. After a dissociation step of 400 s in running buffer, sensor surfaces are regenerated using one pulse of 15 μl of Gly-HCL pH1.7. All the sensorgrams are corrected by subtracting the low signal from the control reference surface and blank buffer. Kinetic parameters are evaluated from the sensorgrams using a Langmuir 1:1 model on the BiaEvaluation software 4.2.
For kinetic studies all the mAb and ADC are injected at various concentrations (0.7 nM-100 nM). The sensorgrams are evaluated by L1:1 fitting model (BiaEvaluation 4.2 software) starting of minimum 3 (n=3) separated experiments or fits to obtain average values for ka, kd and KD with standard deviation (SD). Several experiments are performed on the same AMHRII-coated surface after verification of the responses stability to 10 nM injection of 3C23K before and after the experiment series with each mAb/ADC. All results are obtained from two AMHRII-coated Flowcells.

[2] = molecular target: T3, AMHRII on the COV434 AMHRII transfected cell line (~80,000 receptors) (human, UniProt Q16671 18-573); assay: cell-based or functional assay
T3 sequence: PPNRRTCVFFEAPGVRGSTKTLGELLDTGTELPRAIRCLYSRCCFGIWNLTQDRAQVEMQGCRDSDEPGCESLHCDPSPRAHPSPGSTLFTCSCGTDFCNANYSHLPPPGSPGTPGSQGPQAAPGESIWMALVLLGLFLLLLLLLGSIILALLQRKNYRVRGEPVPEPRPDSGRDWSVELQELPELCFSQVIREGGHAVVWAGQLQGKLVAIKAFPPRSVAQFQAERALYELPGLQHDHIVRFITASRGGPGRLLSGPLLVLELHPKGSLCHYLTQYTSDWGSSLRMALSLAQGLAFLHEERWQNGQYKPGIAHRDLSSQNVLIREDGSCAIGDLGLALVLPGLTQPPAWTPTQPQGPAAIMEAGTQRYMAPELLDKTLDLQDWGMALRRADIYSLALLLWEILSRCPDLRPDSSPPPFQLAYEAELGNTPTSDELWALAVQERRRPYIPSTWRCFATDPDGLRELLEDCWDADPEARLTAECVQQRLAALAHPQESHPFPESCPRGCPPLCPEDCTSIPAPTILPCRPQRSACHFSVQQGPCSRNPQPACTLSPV

B1: GM104 (antibody, human IgG1, kappa)
heavy: QVRLVQSGAEVKKPGASVKVSCKASGYTFTSYHIHWVRQAPGQRLEWMGWIYPGDDSTKYSQKFQGRVTITRDTSASTAYMELSSLRSEDTAVYYCTRGDRFAYWGQGTLVTVSSASTKGPSVFPLAPSSKSTSGGTAALGCLVKDYFPEPVTVSWNSGALTSGVHTFPAVLQSSGLYSLSSVVTVPSSSLGTQTYICNVNHKPSNTKVDKRVEPKSCDKTHTCPPCPAPELLGGPSCVFLFPPKPKDTLMISRTPEVTCVVVDVSHEDPEVKFNWYVDGVEVHNAKTKPREEQYNSTYRVVSVLTVLHQDWLNGKEYKCKVSNKALPAPIEKTISKAKGQPREPQVYTLPPSREEMTKNQVSLTCLVKGFYPSDIAVEWESNGQPENNYKTTPPVLDSDGSFFLYSKLTVDKSRWQQGNVFSCSVMHEALHNHYTQKSLSLSPGK
light: DIQMTQSPSTLSASVGDRVTITCRASSSVRYIAWYQQKPGKAPKLLTYPTSSLESGVPSRFSGSGSGTEFTLTISSLQPDDFATYYCLQWSSYPWTFGGGTKVEIKRTVAAPSVFIFPPSDEQLKSGTASVVCLLNNFYPREAKVQWKVDNALQSGNSQESVTEQDSKDSTYSLSSTLTLSKADYEKHKVYACEVTHQGLSSPVTKSFNRGEC
notes: also called GM104 ADC; ADC according to the invention
B1 was tested, and the Kd (FcRn) was 22 nM, the Kd [1] was 1.7 nM and the “IC50, proliferation/viability of COV434 AMHRII transfected cells after 72 h (CellTiter Blue)” value [2] was 0.22 nM.

— patent US20230001006A1 (GAMAMABS PHARMA, published 2023)
